Test results from US20220125907A1 (VAXCYTE, published 2022).

Molecular target: the molecule itself
Assay: SEC-MALS of purified IpaB in solution (self-association)

B1: Invasion Plasmid Antigen B (IpaB), wild type, full length (other)
chain: MHNVNTTTTGLSLAKILASTELGDNTIQAGNDAANKLFSLTIADLTANKNINTTNAHSTSNILIPELKAPKSLNASSQLTLLIGNLIQILGEKSLTALTNKITAWKSQQQARQQKNLEFSDKINTLLSETEGLTRDYEKQINKLKNADSKIKDLENKINQIQTRLSELDPDSPEKKKLSREEIQLTIKKDAAVKDRTLIEQKTLSIHSKLTDKSMQLEKEIDSFSAFSNTASAEQLSTQQKSLTGLASVTQLMATFIQLVGKNNEESLKNDLALFQSLQESRKTEMERKSDEYAAEVRKAEELNRVMGCVGKILGALLTIVSVVAAAFSGGASLALADVGLALMVTDAIVQAATGNSFMEQALNPIMKAVIEPLIKLLSDAFTKMLEGLGVDSKKAKMIGSILGAIAGALVLVAAVVLVATVGKQAAAKLAENIGKIIGKTLTDLIPKFLKNFSSQLDDLITNAVARLNKFLGAAGDEVISKQIISTHLNQAVLLGESVNSATQAGGSVASAVFQNSASTNLADLTLSKYQVEQLSKYISEAIEKFGQLQEVIADLLASMSNSQANRTDVAKAILQQTTA
notes: also called WT IpaB; IpaB WT; not shown: histidine tag
- binding result: binds
